# Measured values published in patent US20180044415A1 (AbbVie / Abbott, published 2018).
# T1: human DLL3 (immobilized human DLL3 or h293-hDLL3 cells) (human, UniProt Q9NYJ7 27-492, limits assumed)
# T1 construct: the sentence says 'immobilized human DLL3 or h293-hDLL3 cells'
# T1 sequence: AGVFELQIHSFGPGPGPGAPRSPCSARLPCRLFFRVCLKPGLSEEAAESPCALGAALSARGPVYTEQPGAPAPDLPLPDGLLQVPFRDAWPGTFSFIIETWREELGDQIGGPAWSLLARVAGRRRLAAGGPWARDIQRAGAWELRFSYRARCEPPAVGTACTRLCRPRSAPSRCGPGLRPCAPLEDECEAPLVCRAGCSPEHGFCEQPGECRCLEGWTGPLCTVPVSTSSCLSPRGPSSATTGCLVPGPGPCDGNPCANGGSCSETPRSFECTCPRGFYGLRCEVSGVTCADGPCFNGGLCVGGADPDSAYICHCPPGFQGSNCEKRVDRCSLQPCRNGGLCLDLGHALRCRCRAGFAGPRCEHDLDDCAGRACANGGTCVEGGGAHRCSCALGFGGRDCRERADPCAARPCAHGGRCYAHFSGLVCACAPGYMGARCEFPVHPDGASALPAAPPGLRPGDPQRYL
# Target: T1, human DLL3 (immobilized human DLL3 or …)
# Experiment: hybridoma screening on immobilized human DLL3 or on h293-hDLL3 cells
row,binding result,Binder
1,binds,"SC16.47 (antibody, V domains shown, murine mAb; variable regions only) VH: EVQLQQSGPELVKPGASVKISCKASGYSFSRFYMHWVKQSPENSLEWIGEINPSTGGTSYNQKFKGKATLTVDKSSSTAYMQLKSLTSEESAVYYCTRGYGSNCYFDVWGAGTTVTVST VL: DVVLTQSPLSLPVNIGDQASISCKSTKSLLNSDGFTYLDWYLQRPGQSPQFLIYLVSNRFSGVPDRFSGSGSGTDFTLKISRVEAEDLGVYYCFQSNYLPLTFGAGTKLELR"
2,binds,"SC16.57 (antibody, V domains shown, murine mAb; variable regions only) VH: EVKLVESGGDLVKPGGSLKLSCAASGFAFSSYDMSWVRQTPEKRLEWVATISSGGSYTYYPDSVKGRFTISRDNVRDTLYLQMSSLRSEDTALYYCARQAIGTYFDYWGQGTTLTVSS VL: DIVMTQSHKFMSISVGDRVSITCKASQDVSIFVAWYQQKPGQSPKLLIYSASYRYTGVPDRFTGSGSGTDFIFTISSVQAEDLAVYYCQQHYGTPFTFGSGTKLKIR"
3,binds,"SC16.29 (antibody, V domains shown, murine mAb; variable regions only) VH: QVQLQQSGAELARPGASVKLSCKASGYTFTDQYINWVKQRTGQGLEWIGEIYPGRGNTYYNEKFKGKATLTADKSSSTAYMQLSSLTSEDSAVYFCAREDGGYDDAWFAYWGQGTLVTVSA VL: QIVLTQSPAIMSASPGEKVTITCSASSSVSYMHWFQQKPGTSPKLWIYTTSNLASGVPARFSGSGSGTSYSLTVSRMEAEDAATYYCQQRSLYPYTFGGGTKVEIK"
4,binds,"SC16.20 (antibody, V domains shown, murine mAb; variable regions only) VH: QVQLQQSGTELVRPGTSVRVSCKASGYAFGNHLIEWVKQRPGQGLEWIGVINPGTGGTHYNEKFKDKARLTADKSSNTAYMHLNSLTSDDSAVYFCARSPYDYHEGAMDYWGQGTSVTVSS VL: EIQMTQSPSSMSASLGDRITITCQATQDIVKNLNWYQQKPGKPPSFLIYYATELAEGVPSRFSGSGSGSDYSLTIRNLESEDFADHYCLQFYEFPFTFGAGTKLELK"
5,binds,"SC16.45 (antibody, V domains shown, murine mAb; variable regions only) VH: QVQLQQSGADLVRPGTSVKVSCKASGYSFTNYLIEWVKQRPGQGLEWIGVINPGSGGTHYNEKFKDKAVLTADKSSTTAHMQLSSLTSDDSAVYFCARSPYDYNDGAMDYWGQGTSVTVSS VL: EIQMTQSPSSMSASLGDRITITCQATQDIVKNLNWYQQKPGKPPSFLIYYATELAEGVPARFSGSGSGSDYSLTISNLESEDFADYHCLQFYEFPFTFGAGTKLELK"
6,binds,"SC16.42 (antibody, V domains shown, murine mAb; variable regions only) VH: QIQLVQSGPELKKPGETVKISCKASGYTFTTAGMQWVQKMPGKGFKWIGWINTHSGEPKYADDFKGRFAFSLETSASTAYLQISNLKDEDTATFFCAPLWSDSSFAYWGQGTLVTVSA VL: DVLMTQSPLSLSVSLGDQASISCRSSQNIVHSDRYTYLEWYLQKPGQSPKLLIYGVSNRFSGVPDRFSGSGSGTDFTLKISRVEAEDMGVYYCFQGTHVPYTFGGGTKLEIK"
7,binds,"SC16.49 (antibody, V domains shown, murine mAb; variable regions only) VH: QVQLQQSGPELVKPGTLVKISCKASGYTFTSYDINWVKQRPGQGLEWIGWIYPGDGNTKYSEKFKGKATLTADKSSSTAYMQLTSLTSENSAVYFCARDYDYPFAYWGQGTLVTVSA VL: DIKMTQSPSSMYASLGERVTITCKASQDINSYLSWFQQKPGKSPKTLIYRANRLVDGVPSRFSGSGSGQDYSLTITSLEYEDMGIYYCLQYDEFPLTFGAGTKLELK"
8,binds,"SC16.55 (antibody, V domains shown, murine mAb; variable regions only) VH: EVQLVESGGGLVQPKGSLKLSCAVSAFTFTTYAMNWVRQAPGKGLEWVARIRNKSNNYATYYADSVKDRFTISRDDSQSMLYLQMNNLKIEDTAMYYCVFYYDYVYWGQGTLVTVSA VL: DIKMTQSPSSMYASLGERVTITCKASQDINSYLNWFQQKPGKSPKTLIYRANRLVDGVPSRFSGSGSGQDYSLTISSLEYEDMGIYYCLQYDEFPYTFGGGTKLEIK"
9,binds,"SC16.62 (antibody, V domains shown, murine mAb; variable regions only) VH: EVMLVESGGDLVKPGGSLKLSCAASGFTFSSYAMSWVRQTPEKRLEWVAYISGGGDHIYYPDSVRGRFTISRDNAKDTLYLQMSSLRSEDTALYDCARVRDWYFDVWGAGTTVTVSS VL: DIKMTQSPSSMYASLGERVTITCKASQDINSFLSWFQRKPGKSPKTLIYRANRLVDGVPSRFTGSGSGQEFSLTISSLEYEDLGIYYCLQYDEFPYTFGGGTKLEIK"
10,binds,"SC16.22 (antibody, V domains shown, murine mAb; variable regions only) VH: QVQLQQPGAELVKPGASVKLSCKASGYTFTTYWMHWVKQRPGQGLEWIGEIDPSDSYTYYNQKFKGKATLTVDKSSSTAYMQLSSLTSEDSAVYYCARGDYGNPYAMDYWGQGSSVTVSS VL: DIQMTQTTSSLSASLGDRVTISCRASQDIKNYLNWYQQKPDGTVKPLIYYTSRVHSGVPSRFSGSGSGTDYSLTISNLEQEDIATYFCQQGYTLPFTFGSGTKLEIK"
11,binds,"SC16.38 (antibody, V domains shown, murine mAb; variable regions only) VH: EVQLQQSGAELVKPGASVKLSCTVSGFNIKDTYIHWVKQRPEQGLEWIGRIDPANGNTKYDPKFQGKATITADTSSNTAYLQLSSLTSEDTAVYYCARPTGYFEYWGQGTTLTVSS VL: QIVLTQSPAIMSASPGEKVTMTCSASSSINYMHWYQQKPGTSPKRWIYDTSKLASGVPARFSGSGSGTSYSLTISSMEAEDAATYYCHQRSTWTFGGGTKLEIK"

# Continued, binder first:
row,Binder,binding result
1,"SC16.21 (antibody, V domains shown, murine mAb; variable regions only) VH: QVQLQQSGPELVKPGASVKISCKASGYAFSSSWMNWVKQRPGKGLEWIGRIYPGDGDTNYNGKFKGKATLTADKSSSTAYMQLSSLTSEDSAVYFCAMGIYNYDGSRYYSMDYWGQGTSVTVSS VL: DIVMTQSPSSLAMSVGQKVTMSCKSSQSLLNSSNQKNYLAWYQQEPGQSPKLLVSFASTRESGVPDRFTGSGSGTDFTLTISGVQAEDLAVYYCQQHYSIPLTFGAGTKLELK",binds
2,"SC16.61 (antibody, V domains shown, murine mAb; variable regions only) VH: EVLLQRSGPDLVKPGASVTIPCKASGYTFTDYNMDWVKQSHGKSLEWIGNINTYNGGTIYNQKFKGKATLTVDKPSSTAYMELRSLTSEDTAVYYCARRLRYGGHYFDYWGQGTALTVSS VL: DIVMTQSTSSLAMSVGQKVTMSCKSSQSLLNSSNQKNYLAWYQQEPGQSPKLLVSFASTRESGVPDRFTGSGSGTDFTLTISGVQAEDLAVYYCQQHYSIPLTFGAGTKLELK",binds
3,"SC16.30 (antibody, V domains shown, murine mAb; variable regions only) VH: QVTLKESGPGILQPSQTLSLTCSFSGFSLSTSGMGVGWIRQPSGKGLEWLAHIWWDDVKRYKPALKSRLTVSKDTSSNQVFLKIATVDAADTGTYYCARIVDGHPPFAYWGQGTLVTVSA VL: QIVLTQSPTIMSASLGERVTMTCTASSSVTSSYLHWYQQKPGSSPKLWIYSTSNLASGVPARFSGSGSGTSYSLTISSMEAEDAATYYCHQFHRSPFTFGSGTKLEIK",binds
4,"SC16.63 (antibody, V domains shown, murine mAb; variable regions only) VH: QVQLQQSGTELLRPGASVKISCKATGYTFSSYWMEWVKQRPGHGLEWIGEILPGSGTTQYNEKFKGKATFTADTSSNTAYMHLSSLTSEDSAVYYCARGTNSLWGQGTLVTVSA VL: QIVLTQSPAIMSASPGEKVTMTCSASSSVSYMYWYQQKSGTSPKRWIYDTSKLASGVPARFSGSGSGTSYSLTISSMEAEDAATYYCQQWSSNPYTFGGGTKLEIK",binds
5,"SC16.52 (antibody, V domains shown, murine mAb; variable regions only) VH: QVQLKESGPGLVAPSQSLSITCAVSGFSLTSFAIHWFRKPPGKGLEWLGVIWTGGTTNYNSALMSRLSISKDNSKSQVFLKMNSLQTDDTAMYYCARDDYDNNYAMDYWGQGTSVTVSS VL: DIQMIQSPSSMFASLGDRVSLSCRASQGIRGTLDWYQQKPNGTIKLLIYSTSNLNSGVPSRFSGSGSGSDYSLTISSLESEDFADYYCLQRNAYPLTFGAGTKLELK",binds
6,"SC16.58 (antibody, V domains shown, murine mAb; variable regions only) VH: DVQLVESGGGLVQPGGSRKLSCAASGFTFSSFGMHWVRQAPEKGLEWVAYISSGSSNIYYADTVKGRFTISRDNPKNTLFLQMTSLRSEDTAMYYCARGYYGNYDAMDYWGQGTSVTVSS VL: DIQMTQSPASLSSSVGETVTITCRASENIYSYLAWYQQKQGKSPQLLVYNAKTLAEGVPSRFSGSGSGTQFSLKINSLQPEDFGTYYCQHHYDSPLTFGAGTKLELR",binds
7,"SC16.41 (antibody, V domains shown, murine mAb; variable regions only) VH: EVKLEESGGGLVQFGGSMKLSCAASGFTFSDAWMDWVRQSPEKGLEWVAEIRNKANNHATYYPESVKGRFTISRDDSKSRVYLQMNNLRAEDTGIYYCTGYSSFAYWGQGTLVTVSA VL: DIQMTQTTSSLSASLGDRVTISCRASQDVINYLNWYQQKPDGTVKLLIYYTSRLHSGVPSRFSGSGSRTDYSLTISNLEPEDIATYYCQQYSERPYTFGGGTKLEIK",binds
8,"SC16.35 (antibody, V domains shown, murine mAb; variable regions only) VH: DVQLQESGPGLVKPSQSLSLTCTVTGYSITSDYAWNWIRQFPGNKLEWMGYISYSGSTSYNPSLKSRISITRDTSKNQFFLQLNSVTTEDTATYYCARFYYGSSYAMDYWGQGTSVTVSS VL: DIQMTQTTSSLSASLGDRVTISCRASQDISNYLNWYQQKPDGTVKLLIYYTSRLHSGVPSRFSGSGSGTDYSLTISNLEQEDIATYFCQQGNTLPYTFGGGTKLEIK",binds
9,"SC16.19 (antibody, V domains shown, murine mAb; variable regions only) VH: EVQLQQSGAELVRPGASVKLSCTASGFNIKDSLLHWVKQRPEKGLEWIGWIDPEDGETKYAPNFQDKATITTDSSSNTAYLQLISLTSVDTAIYYCAYGNYVRHFDYWGQGTTLTVSS VL: DIQMTQSPSSLSASLGGKVTFTCKASQDIHKYVAWYQHKPGKGPRLLIHYTSTLQPGISSRFSGSGSGRDYSFSISNLEPEDIATYYCLQYNNLYTFGGGTKLEIK",binds
